Measurements taken from patent US20090318535.

Target: human BimEL (Bcl-2-Interacting Mediator of cell death, Extra Long isoform)

B1: human RSK1 (p90rsk/MAPKAP kinase-1) (protein)
chain: MEQDPKPPRLRLWALIPWLPRKQRPRISQTSLPVPGPGSGPQRDSDEGVLKEISITHHVKAGSEKADPSHFELLKVLGQGSFGKVFLVRKVTRPDSGHLYAMKVLKKATLKVRDRVRTKMERDILADVNHPFVVKLHYAFQTEGKLYLILDFLRGGDLFTRLSKEVMFTEEDVKFYLAELALGLDHLHSLGIIYRDLKPENILLDEEGHIKLTDFGLSKEAIDHEKKAYSFCGTVEYMAPEVVNRQGHSHSADWWSYGVLMFEMLTGSLPFQGKDRKETMTLILKAKLGMPQFLSTEAQSLLRALFKRNPANRLGSGPDGAEEIKRHVFYSTIDWNKLYRREIKPPFKPAVAQPDDTFYFDTEFTSRTPKDSPGIPPSAGAHQLFRGFSFVATGLMEDDGKPRAPQAPLHSVVQQLHGKNLVFSDGYVVKETIGVGSYSECKRCVHKATNMEYAVKVIDKSKRDPSEEIEILLRYGQHPNIITLKDVYDDGKHVYLVTELMRGGELLDKILRQKFFSEREASFVLHTIGKTVEYLHSQGVVHRDLKPSNILYVDESGNPECLRICDFGFAKQLRAENGLLMTPCYTANFVAPEVLKRQGYDEGCDIWSLGILLYTMLAGYTPFANGPSDTPEEILTRIGSGKFTLSGGNWNTVSETAKDLVSKMLHVDPHQRLTAKQVLQHPWVTQKDKLPQSQLSHQDLQLVKGAMAATYSALNSSKPTPQLKPIESSILAQRRVRKLPSTTL
  in vitro kinase assay: phosphorylation of BimEL on serines 93/94/98: RSK1 phosphorylates BimEL in vitro on serines 93/94/98 (the degron serines)
